Source: IntAct's records for PubMed 12502741

B1: Retinoblastoma-associated protein (Homo sapiens), P06400 (parent)
chain: MPPKTPRKTAATAAAAAAEPPAPPPPPPPEEDPEQDSGPEDLPLVRLEFEETEEPDFTALCQKLKIPDHVRERAWLTWEKVSSVDGVLGGYIQKKKELWGICIFIAAVDLDEMSFTFTELQKNIEISVHKFFNLLKEIDTSTKVDNAMSRLLKKYDVLFALFSKLERTCELIYLTQPSSSISTEINSALVLKVSWITFLLAKGEVLQMEDDLVISFQLMLCVLDYFIKLSPPMLLKEPYKTAVIPINGSPRTPRRGQNRSARIAKQLENDTRIIEVLCKEHECNIDEVKNVYFKNFIPFMNSLGLVTSNGLPEVENLSKRYEEIYLKNKDLDARLFLDHDKTLQTDSIDSFETQRTPRKSNLDEEVNVIPPHTPVRTVMNTIQQLMMILNSASDQPSENLISYFNNCTVNPKESILKRVKDIGYIFKEKFAKAVGQGCVEIGSQRYKLGVRLYYRVMESMLKSEEERLSIQNFSKLLNDNIFHMSLLACALEVVMATYSRSTSQNLDSGTDLSFPWILNVLNLKAFDFYKVIESFIKAEGNLTREMIKHLERCEHRIMESLAWLSDSPLFDLIKQSKDREGPTDHLESACPLNLPLQNNHTAADMYLSPVRSPKKKGSTTRVNSTANAETQATSAFQTQKPLKSTSLSLFYKKVYRLAYLRLNTLCERLLSEHPELEHIIWTLFQHTLQNEYELMRDRHLDQIMMCSMYGICKVKNIDLKFKIIVTAYKDLPHAVQETFKRVLIKEEEYDSIIVFYNSVFMQRLKTNILQYASTRPPTLSPIPHIPRSPYKFPSSPLRIPGGNIYISPLKSPYKISEGLPTPTKMTPRSRILVSIGESFGTSEKFQKINQMVCNSDRVLKRSAEGSNPPKPLKKLRFDIEGSDEADGSKHLPGESKFQQKLAEMTSTRTRMQKQKMNDSMDTSNKEEK

Variants of: B1
Conditions: with e2f1_human E2F1, Q01094
Chain of e2f1_human E2F1, Q01094 (Q01094 whole entry): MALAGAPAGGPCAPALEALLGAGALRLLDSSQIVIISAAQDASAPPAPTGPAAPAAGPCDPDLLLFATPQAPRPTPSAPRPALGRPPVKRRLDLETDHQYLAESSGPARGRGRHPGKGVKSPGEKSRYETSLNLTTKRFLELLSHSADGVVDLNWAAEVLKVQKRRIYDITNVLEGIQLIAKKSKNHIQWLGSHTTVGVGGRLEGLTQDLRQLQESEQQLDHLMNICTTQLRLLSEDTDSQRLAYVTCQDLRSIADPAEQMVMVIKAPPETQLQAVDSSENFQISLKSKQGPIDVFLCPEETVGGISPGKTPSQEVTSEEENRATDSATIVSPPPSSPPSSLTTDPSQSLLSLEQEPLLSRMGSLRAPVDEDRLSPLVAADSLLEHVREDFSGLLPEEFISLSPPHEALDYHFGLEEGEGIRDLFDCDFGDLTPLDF

Effect of a mutation on the interaction, decreasing interaction strength:
F482A
E554A
R467A
K653A
